This is an account of results in US20220411487A1 (Regeneron, published 2022).

Assay [1] deals with T1, full length mouse TMPRSS6 on HEK293 cells (HEK293/mTMPRSS6) (mouse, UniProt Q9DBI0 1-811).
T1 construct: line sorted for high expression
T1 sequence: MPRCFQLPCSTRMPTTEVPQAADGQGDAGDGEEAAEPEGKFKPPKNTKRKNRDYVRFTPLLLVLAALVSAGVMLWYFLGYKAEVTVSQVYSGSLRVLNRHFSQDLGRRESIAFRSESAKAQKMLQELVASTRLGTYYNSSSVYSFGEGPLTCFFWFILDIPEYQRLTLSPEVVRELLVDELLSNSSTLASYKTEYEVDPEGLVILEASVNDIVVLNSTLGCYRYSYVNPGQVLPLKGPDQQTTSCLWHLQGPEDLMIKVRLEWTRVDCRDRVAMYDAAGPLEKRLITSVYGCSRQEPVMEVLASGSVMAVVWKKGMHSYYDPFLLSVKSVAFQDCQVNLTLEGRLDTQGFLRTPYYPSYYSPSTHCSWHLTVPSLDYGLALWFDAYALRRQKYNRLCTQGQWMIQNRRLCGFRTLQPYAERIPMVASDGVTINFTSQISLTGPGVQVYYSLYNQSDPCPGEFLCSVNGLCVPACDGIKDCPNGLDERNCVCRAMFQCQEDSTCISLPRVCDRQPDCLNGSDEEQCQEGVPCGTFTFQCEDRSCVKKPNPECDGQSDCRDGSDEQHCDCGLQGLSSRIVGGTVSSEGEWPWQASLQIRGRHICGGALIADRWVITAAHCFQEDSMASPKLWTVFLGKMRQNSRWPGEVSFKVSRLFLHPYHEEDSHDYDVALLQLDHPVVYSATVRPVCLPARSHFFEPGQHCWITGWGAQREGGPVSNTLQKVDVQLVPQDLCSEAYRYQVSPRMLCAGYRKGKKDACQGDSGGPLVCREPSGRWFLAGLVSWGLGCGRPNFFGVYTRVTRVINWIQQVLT
The experiment in a line: flow cytometry, HEK293/mTMPRSS6 cells. (In general: Flow cytometry measures light scatter and fluorescence of single cells or particles in a stream.)

Assay [2] concerns the target T2, mTMPRSS6_S762A-MMH (mouse, UniProt Q9DBI0 81-811).
T2 construct: also called REGN6848; mouse TMPRSS6 extracellular domain with a S762A mutation and a C-terminal myc-myc-hexahistidine tag
Description: SPR, mAb captured via anti-hFc, 37 C. The procedure:
The equilibrium dissociation constant (KD) for TMPRSS6 binding to different TMPRSS6 monoclonal antibodies (mAbs) was determined using a real-time surface plasmon resonance biosensor using a Biacore 4000 instrument. All binding studies were performed in 10 mM HEPES, 150 mM NaCl, 3 mM EDTA, and 0.05% v/v Surfactant Tween-20, pH 7.4 (HBS-ET) running buffer at 25° C. and 37° C. The Biacore CM5 sensor chip surface was first derivatized by amine coupling with a human Fc specific mouse mAb to capture different TMPRSS6 mAbs. […] Different concentrations (100 nM to 3.7 nM, 3-fold serial dilution) of the TMPRSS6 reagent proteins prepared in HBS-EP running buffer were injected over the TMPRSS6 mAb captured surface for 150 seconds at a flow rate of 30 μL/min and their dissociation in HBS-ET running buffer was monitored for 10 minutes. At the end of each cycle, the TMPRSS6 mAb captured surface was regenerated using a 12 second injection of 20 mM phosphoric acid.
The association rate (kₐ) and dissociation rate (kd) were determined by fitting the real-time binding sensorgrams to a 1:1 binding model with mass transport limitation using Scrubber 2.0 (BioLogic Software) curve-fitting software. Binding dissociation equilibrium constant (KD) and dissociative half-life (t½) were calculated from the kinetic rates as: […]
(In general: SPR reads the build-up and loss of mass on a sensor chip optically.)

Assay [3] concerns the target T3, full length human TMPRSS6 on HEK293 cells (HEK293/hTMPRSS6) (human, UniProt Q8IU80 10-811).
T3 construct: whole, on cells
T3 sequence (looked up): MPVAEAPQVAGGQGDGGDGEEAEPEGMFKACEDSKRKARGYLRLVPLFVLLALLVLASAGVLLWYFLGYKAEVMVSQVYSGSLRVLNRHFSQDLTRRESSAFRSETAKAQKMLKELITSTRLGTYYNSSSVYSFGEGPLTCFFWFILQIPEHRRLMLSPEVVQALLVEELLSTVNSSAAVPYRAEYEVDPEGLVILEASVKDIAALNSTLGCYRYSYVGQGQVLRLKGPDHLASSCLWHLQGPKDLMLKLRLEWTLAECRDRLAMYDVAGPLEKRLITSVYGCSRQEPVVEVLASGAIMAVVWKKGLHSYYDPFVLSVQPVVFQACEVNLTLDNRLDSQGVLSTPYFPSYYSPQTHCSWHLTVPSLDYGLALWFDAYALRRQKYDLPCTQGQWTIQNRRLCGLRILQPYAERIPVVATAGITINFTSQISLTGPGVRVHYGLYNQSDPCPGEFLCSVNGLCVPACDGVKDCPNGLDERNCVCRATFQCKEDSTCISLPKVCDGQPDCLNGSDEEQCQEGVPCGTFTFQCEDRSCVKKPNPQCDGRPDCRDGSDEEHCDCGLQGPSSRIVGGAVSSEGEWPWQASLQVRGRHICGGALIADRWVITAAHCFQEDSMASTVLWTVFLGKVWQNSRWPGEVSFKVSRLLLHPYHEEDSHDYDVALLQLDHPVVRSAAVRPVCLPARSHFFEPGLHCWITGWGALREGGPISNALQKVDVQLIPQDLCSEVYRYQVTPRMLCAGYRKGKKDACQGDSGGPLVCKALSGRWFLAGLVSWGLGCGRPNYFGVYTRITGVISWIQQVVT
Description: flow cytometry, HEK293 cells expressing target. The procedure:
(§1) To assess the binding of anti-TMPRSS6 antibodies of the present disclosure to the receptor expressed on the cell surface, antibodies (including an IgG subclass control) were serially diluted in assay buffer (PBS without Ca⁺⁺ and Mg⁺⁺ containing 2% FBS) from 375 nM to 22.9 pM (plus a sample containing assay buffer alone without test molecule) and incubated with 0.5×10⁶ cells/well at 4° C. for 30 minutes in assay buffer. […] Cells were fixed using BD CytoFix™ (Becton Dickinson, #554655) and analyzed on either the IQue® or IQue®Plus Flow Cytometers (Intellicyt®). Unstained and secondary antibody alone controls were also tested for all cell lines. The results were analyzed using ForeCyt® (IntelliCyt®) software to determine the geometric means of fluorescence for viable cells and binding ratio was calculated by normalizing the geometric mean value of the test condition by the geometric mean value of the corresponding unstained cells.

The target in assay [4] is T1, full length mouse TMPRSS6 on HEK293 …. The experiment in a line: flow cytometry, HEK293 cells expressing target. The protocol: as §1
For assay [5] the target is unchanged. The experiment in a line: cell-based or functional assay.

T2 sequence (Q9DBI0 other isoform, or with tags, fused parts or gaps S762A S762A): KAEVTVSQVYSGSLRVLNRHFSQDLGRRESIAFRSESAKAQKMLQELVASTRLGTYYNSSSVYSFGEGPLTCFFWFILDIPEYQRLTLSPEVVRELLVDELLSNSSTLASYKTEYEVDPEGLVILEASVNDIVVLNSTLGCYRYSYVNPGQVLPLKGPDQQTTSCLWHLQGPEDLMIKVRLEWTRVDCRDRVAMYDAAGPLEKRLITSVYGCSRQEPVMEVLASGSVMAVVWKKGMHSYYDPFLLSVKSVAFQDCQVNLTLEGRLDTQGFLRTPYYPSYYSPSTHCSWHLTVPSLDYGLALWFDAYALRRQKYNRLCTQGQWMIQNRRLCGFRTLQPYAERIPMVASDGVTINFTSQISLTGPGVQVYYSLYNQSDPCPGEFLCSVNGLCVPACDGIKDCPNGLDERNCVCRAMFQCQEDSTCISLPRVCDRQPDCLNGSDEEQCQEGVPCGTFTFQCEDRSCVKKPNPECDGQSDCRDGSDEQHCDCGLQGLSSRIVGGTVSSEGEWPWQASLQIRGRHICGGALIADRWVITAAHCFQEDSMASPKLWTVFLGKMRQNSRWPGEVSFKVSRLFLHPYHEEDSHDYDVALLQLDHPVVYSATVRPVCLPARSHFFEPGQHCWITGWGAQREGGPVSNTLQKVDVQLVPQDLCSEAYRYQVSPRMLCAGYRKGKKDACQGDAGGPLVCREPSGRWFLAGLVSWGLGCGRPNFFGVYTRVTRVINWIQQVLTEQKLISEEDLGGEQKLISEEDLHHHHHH

B1: REGN7969 (antibody, human IgG4 S228P, kappa, V domains shown)
VH: QVQLVESGGGVVQPGRSLRLSCAASGFTFNNYGMHWVRQAPGKGLEWVAIISYDGSNEYYSDSVKGRFTISRDNSKNTLYLQMNSLRAEDTAVYYCARDQDYGGNLFHYWGQGTLVTVSS
VL: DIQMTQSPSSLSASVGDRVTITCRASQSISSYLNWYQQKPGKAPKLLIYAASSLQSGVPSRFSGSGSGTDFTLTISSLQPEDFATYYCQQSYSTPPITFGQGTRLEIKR
notes: fully human; human IgG4 Fc with hinge S108P; also called mAb37746
As to B1, in assay [1], the binding result is on record as “no binding (tested: 375 nM)”. In addition, the “100 nM Ag Bound” value in assay [2] came out at 2 RU. In assay [3], it took 0.67 nM to reach a half-maximal effect (EC50) and the “Max. Fold Binding” value is 52 fold over unstained control. Further, the “Max. Fold Binding” value in assay [4] was 1 fold over unstained control.

B2: REGN7971 (antibody, human IgG4 S228P, kappa, V domains shown)
VH: QVQLVESGGGVVQPGRSLRLSCAASGFTFSTYGMHWVRQAPGKGLEWVAIISYDGSNDYYLDSVKGRFTISRDNSKNTLYLQMNNLRAEDTAVYYCAKDQGYGGNLFASWGQGTLVTVSS
VL: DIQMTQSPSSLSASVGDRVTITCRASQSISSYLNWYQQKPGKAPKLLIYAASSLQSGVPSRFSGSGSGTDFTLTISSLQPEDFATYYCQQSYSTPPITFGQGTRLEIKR
notes: fully human; human IgG4 Fc with hinge S108P; also called mAb37763
As for B2, in assay [1], the binding result was “no binding (tested: 375 nM)”. This molecule also had an EC50 in assay [3] of 0.97 nM. For the same molecule, the “Max. Fold Binding” value was 66 fold over unstained control in assay [3] and 1 fold over unstained control in assay [4].

B3: REGN8023 (antibody, human IgG4 S228P, kappa, V domains shown)
VH: EVQLVESGGGLVKPGGSLRISCAASGFIFVDYAMHWVRQAPGKGLEWVSGISWNSGSIGYADSVKGRFTISRDNAKKSLYLQMSGLRPEDTALYYCVKSGFYYVRSYFDNWGQGTLVTVSS
VL: DIVMTQSPLSLPVTPGEPASISCRSSQSLLDSDDGNTYLDWYLRKPGQSPQLLIYTLSYRASGVPDRFSGSGSGTDFTLKISRVEADDVGVYYCMQRIEFPLTFGGGTKVEIKR
notes: fully human; human IgG4 Fc with hinge S108P; also called mAb37699
With B3, in assay [2], the “100 nM Ag Bound” value is 189 RU, binding was characterised by a dissociation constant (Kd) of 24.7 nM, the koff is 0.00666 s⁻¹ and the kon came to 269000 M⁻¹ s⁻¹. In assay [2], this molecule had a t½ of 1.7 min. Further, in assay [5], the “% inhibition, HEK293 bioassay, 30 min pre-incubation 25 C” value (shortened to “% inhibition, HEK293 bioassay”) amounted to 82% and the “IC50, HEK293 bioassay, 30 min pre-incubation 25 C” value (shortened to “IC50, HEK293 bioassay”) was 1.5 nM. Moreover, in assay [3], the EC50 came to 0.7 nM and the “Max. Fold Binding” value is 47 fold over unstained control. Besides, in assay [4], the midpoint of the response, the EC50, lay at 0.84 nM and the “Max. Fold Binding” value is 296 fold over unstained control.

B4: REGN7977 (antibody, V domains shown)
VH: EVQLVESGGGLVKPGGSLRVSCAASGVTFSNVWMSWVRQVPGKGLEWVGRIKSKTDGGTTDYAAPVKGRFTISKDDSKNTLFLQMNSLKTEDTAVYYCTTETGDFWSGYYPRFQHWGQGTLVTVSS
VL: DIQMTQSPSSLSASVGDRVTITCRASQYISTYLNWYQQKPGKAPSLLIYAASSLQSGVPSRFSGSGSGTDFTLTISSLQPEDFASYSCQQSYSTPPYTFGQGTKLEIKR
notes: fully human; human IgG4 Fc with hinge S108P; also called mAb41465
Turning to B4, in assay [2], the “100 nM Ag Bound” value was determined as 9 RU, the Kd is 703 nM, the koff is 0.227 s⁻¹ and the kon was found to be 323000 M⁻¹ s⁻¹. Besides, the t½ in assay [2] is 0.05 min. Moreover, in assay [5], the “% inhibition, HEK293 bioassay” value stood at 58% and the “IC50, HEK293 bioassay” value amounted to 35 nM. Moreover, in assay [3], the response was half-maximal at 1.9 nM (EC50) and the “Max. Fold Binding” value was 69 fold over unstained control. Also, in assay [4], the EC50 worked out at 9.1 nM and the “Max. Fold Binding” value was 125 fold over unstained control.

B5: REGN7974 (antibody, human IgG4 S228P, kappa, V domains shown)
VH: EVQLVESGGGLVQPGRSLRLSCIASGFNFGDYGMSWVRQAPGKGLEWVGFIRSKAYGGTTEYAASVKGRFTISRDDSKSIAYLQMNSLKTEDAAMYYCSRDYYDILTGYYGDYWGQGTLVTVSS
VL: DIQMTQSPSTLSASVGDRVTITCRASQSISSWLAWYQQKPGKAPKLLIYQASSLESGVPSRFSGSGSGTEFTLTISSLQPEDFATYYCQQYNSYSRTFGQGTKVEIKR
notes: fully human; human IgG4 Fc with hinge S108P; also called mAb41422
As to B5, in assay [1], the binding result is recorded as “no binding (tested: 375 nM)”. For the same molecule, in assay [2], the “100 nM Ag Bound” value worked out at 3 RU. In assay [3], the EC50 was determined as 2.4 nM and the “Max. Fold Binding” value was 54 fold over unstained control. Moreover, in assay [4], the “Max. Fold Binding” value was 1 fold over unstained control.

B6: REGN7999 (antibody, human IgG4 S228P, kappa, V domains shown)
VH: EVQLVESGGGLVQPGGSLRLSCAASGFTFSSYAMTWVRQAPGKGLEWVSAISGSDTSTYYADSVKGRFTISRDNSKNTLFLQMNSLRAEDTAVYYCAKHQDYDFSYYYSAMDVWGQGTTVTVSS
VL: DIQMTQSPSSLSASVGDRVIITCRASQDFNSWLAWYQQKPGKAPKLLIYAASSLQSGVPSRFSGSGSGTDFTLTISSLQPEDFATYYCQQTDSFPFTFGPGTKVDIKR
notes: fully human; human IgG4 Fc with hinge S108P; also called mAb41450
Consider B6, for which, in assay [2], the “100 nM Ag Bound” value was 130 RU, binding was characterised by a dissociation constant (Kd) of 0.317 nM, the koff is 0.00016 s⁻¹ and the kon is 505000 M⁻¹ s⁻¹. The same molecule displayed a t½ in assay [2] of 72 min. In assay [5], the “% inhibition, HEK293 bioassay” value amounted to 88% and the “IC50, HEK293 bioassay” value amounted to 3.6 nM. In assay [3], a half-maximal response (EC50) required 2.2 nM and the “Max. Fold Binding” value is 50 fold over unstained control. Besides, in assay [4], the EC50 was determined as 4.5 nM and the “Max. Fold Binding” value is 421 fold over unstained control.

Usually EC50 stands for the midpoint of the concentration-response curve. A high value points to a less potent agent. The term Kd denotes a measure of binding affinity in units of concentration. Higher therefore signals lower affinity. Broadly, the koff is the rate constant with which the complex falls apart. A low value points to slow dissociation. What is called kon is the second-order rate constant of association. High values mean faster complex formation, low ones slower complex formation. What is called t½ is the time in which the quantity being followed falls by half. A low value points to rapid decline.
